# From patent US20060078622A1, “Pharmaceutical formulations containing microparticles or nanoparticles of a delivery agent” (priority 2004, published 2006)
# Several values for one entry are separate records, joined by “and”; a condition that tells them apart may be missing. Identical values can stand only once.
# Assay: Stability of insulin in simulated intestinal fluid (HPLC)
# Details: for stability of insulin / Insulin % of theoretical: 37° C.
# Description: The SIF solutions were prepared with and without pancreatic enzyme. SIF pH 7.5 was prepared as per the USP NF 26 guidelines. SIF was prepared by addition of 6.8 g monobasic potassium phosphate and 10 g of pancreatin into a suitable vessel, and deionized water was added to reach a total volume of one liter. If necessary, the pH was adjusted to 7.5 by addition of 0.2 N sodium hydroxide. A second SIF solution omitting the pancreatin, an intestinal enzyme, was also prepared.
# Four 50 ml samples of SIF (two with pancreatin and two without) were placed into a jacketed vessel connected to a circulating water bath set at 37° C. The solutions were stirred with magnetic stir bars for ten minutes to allow the solutions to reach 37° C. and reach thermal equilibrium.
substance,measurement,setting,value
Insulin: Recombinant human zinc insulin,stability of insulin,SIF in presence of the enzyme (pancreatin),degrades
same,Insulin % of theoretical,"SIF no enzymes, with 4-CNAB, 0 minutes",100.2%
same,Insulin % of theoretical,"SIF no enzymes, with 4-CNAB, 4 minutes",106.3%
same,Insulin % of theoretical,"SIF no enzymes, with 4-CNAB, 45 minutes",99.1%
same,Insulin % of theoretical,"SIF no enzymes, with 4-CNAB, 24 hours",105.6%
same,Insulin % of theoretical,"SIF with pancreatin, with 4-CNAB, 0 minutes",58.9%
same,Insulin % of theoretical,"SIF with pancreatin, with 4-CNAB, 4 minutes",19.3%
same,Insulin % of theoretical,"SIF with pancreatin, with 4-CNAB, 6 minutes",5.4%
same,Insulin % of theoretical,"SIF without 4-CNAB or enzymes, 0 minutes",92.9%
same,Insulin % of theoretical,"SIF without 4-CNAB or enzymes, 15 minutes",92.7%
same,Insulin % of theoretical,"SIF without 4-CNAB or enzymes, 1 hour",92.7%
same,Insulin % of theoretical,"SIF without 4-CNAB or enzymes, 2 hours",94.6%
same,Insulin % of theoretical,"SIF without 4-CNAB or enzymes, 24 hours",100.4%
same,stability of insulin,SIF without pancreatin,stable
same,insulin remained,"SIF, first sampling time point (0 minutes)",58.9% and 66.9%
